Assay results from the supplement of paper PMC9170038.

Test system: MS2 coat protein
Assay: apparent KD of MS2 coat protein; designed switch direction (-1 OFF switch, 1 ON switch): -1; higher = weaker reporter binding
How it was run: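 Transcription of designed RNA switches on Illumina chips was done by stalled E. coli RNA polymerase. SNAP-549-labelled MS2 coat protein was then titrated in doubling steps from 0.7 or 1.5 nM to 3 µM, with steps of 0.8–1.5 h at the lowest and 10–20 min at the highest concentration. The per-design median over clusters of curve-fitted normalised fluorescence is reported as apparent KD.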

[1] = input ligand: microRNA oligo, concentration not stated
[2] = Eterna round: R95, input ligand: FMN 200 uM
[3] = Eterna round: R95, input ligand: microRNA oligo, concentration not stated
[4] = Eterna round: R95, input ligand: none

Sequence | apparent KD of MS2 coat protein (input ligand: FMN 200 uM) | apparent KD of MS2 coat protein [1] | apparent KD of MS2 coat protein (input ligand: none) | apparent KD of MS2 coat protein [2] | apparent KD of MS2 coat protein [3] | apparent KD of MS2 coat protein [4]
AAUAACAGAGGAUAUACUAUUUUAUGUGUUUGUUAUUUUGAACAUGAGGAUCACCCAUGUAGAAGGCUGAUUAA [JMF 49] (Eterna round: R96, puzzle: Exclusion 2) | 45.6 nM | 35.2 nM | 44.1 nM | – | – | –
AUUAUUUAAGUCAGGAUAUCGUAUUUAAUUAAAUACGAGAAGGGACAUGAGGAUCACCCAUGUAAUAAAUUUUA [JMFs Solution 1] (puzzle: Brourd's mod of Exclusion 4) | – | – | – | 24.1 nM | 14.2 nM | 15.9 nM
GAUCCACAUGAGGAUCACCCAUGUGAGGAUAUGAUACUAUGUACUUCGGUACAUAGUAUCAGAAGGCACAGGUC [Ex1-3: 56] (puzzle: Exclusion 1) | – | – | – | – | 50.6 nM | –
GGAUCGAAUGUGAGGAUAUGCUGGUCCUUGGAUCAGCAGAAGGCACAUGAGGAUCACCCAUGUGACCAAGAUCC [Eli bmx4 4.73] (Eterna round: R97, puzzle: Brourd's mod of Exclusion 4) | 450 nM | – | 44.1 nM | – | – | –
GAUCAUGCAGGAUAUACAUGGAUCAUGAAAACAUGGAUUUCACAUGAGGAUCACCCAUGUAGAAGGGCAUGAUC [Omei Ex2 A10] (Eterna round: R97, puzzle: Exclusion 2) | 47.5 nM | – | 141 nM | – | – | –
CCACUGUCAGGAUAUCGUGCAUAACGUUAACAAUUUAUGUGCGAGAAGGGACAUGAGGAUCACCCAUGUAAACG [Omei Ex4 A28PK4] (Eterna round: R97, puzzle: Exclusion 4) | 233 nM | – | 166 nM | – | – | –
UGUACUAACACGAUAGUGUUAGUACUAUAAGCUUGUGUUACAUGAGGAUCACCCAUGUCCUCAUAAGCUCGUCUUGA [Mat - Sensor v3 - Turn-off var 2 - D93] (puzzle: Sensor v3, turn-off variant 2) | – | – | – | 32.3 nM | 712 nM | 31.2 nM
CGAAGAUGAGGAUAUGCUACAGACAUGUUCGCGCAGAAGUAACAUGAGGAUCACCCAUGUAGAAGGCAUCUUUU [Eternabot (L2) Solution 88] (Eterna round: R97, puzzle: Exclusion 2) | 36.5 nM | – | 35.9 nM | – | – | –
UUUAAGUCAGGAUAUCGUUAAUUUAAUAAAUUAAUUUAAUUCGAGAAGGGACAUGAGGAUCACCCAUGUAAUUU [Ex4 #2] (Eterna round: R97, puzzle: Exclusion 4) | 33.5 nM | – | 28 nM | – | – | –
UUGUACCGGUGAGGAUAUUUUUAAUAGAGCUUUAUGAUAUACAUGAGGAUCACCCAUGUUACUUUAAAGAAGGCAUCGGAUUAU [JL JR Sub091 mod 3] (Eterna round: R96, puzzle: Exclusion NG 2) | 14.9 nM | 12 nM | 20.6 nM | – | – | –
ACUCGACAUGAGGAUCACCCAUGUGAGGAUAUGGCCUGUAUGGCGUGAGCUGGAUCAAUCAGAAGGCGCGUGGG [salish99_ex1_r4_052] (Eterna round: R97, puzzle: Exclusion 1) | 80.4 nM | – | 56 nM | – | – | –
AGUAACCGUCACGAAAGUGAUGGUUACGCAAGUAAAUGUACAUGAGGAUCACCCAUGUCCUCAAUUGCUCGUCUUAU [Sensor 3 - 52] (puzzle: Sensor v3, turn-off variant 2) | – | – | – | 663 nM | 167 nM | 623 nM
ACAAGCUUGUAAUGAUUGAACAUGAGGAUCACCCAUGUAAAUGGAAGAACCAAUUUGAUAAGAUAAACUCGUCUUAU [JR_STOV1_Sub005] (Eterna round: R97, puzzle: Sensor, turn-off variant 1) | 56.9 nM | – | 55.7 nM | – | – | –
AGCUGACGAGGAUAUACAUGAGGAUCACCCAUGUUGGUCAAGCGACUUCGGUCGCAAUGUAGAAGGCGUCAGCU [E3/8-A4] (Eterna round: R97, puzzle: Exclusion 3) | 263 nM | – | 430 nM | – | – | –
GAGCUAUGAGGAUAUGCAUAUAUGCGGUUUCGUGUGGUACUACAUGAGGAUCACCCAUGUAGAAGGCGUGGCAG [Mat - Exclusion 2 - Mod of JL - D79] (puzzle: Exclusion 2) | – | – | – | – | 13.2 nM | –
ACAUGAGGAUCACCCAUGUCCGGCUGGUCCGUCUCGGCUGUCGAGGAUAUAGCUUGGUGUCCGCGCUAGAAGGUGGGAGCCGGC [Aenatbe mod 71] (Eterna round: R96, puzzle: Exclusion NG 3) | 166 nM | 105 nM | 154 nM | – | – | –
AGCUGUGGCCGAGGAUAUGACAUGAGGAUCACCCAUGUACGUAAUUAGGCCUGGUAACAGGCUCGUCAGAAGGCGGUCUCAGCA [Eli eng2 - 008] (Eterna round: R96, puzzle: Exclusion NG 2) | 12.2 nM | 7.43 nM | 15.3 nM | – | – | –
AGAUCACAUGAGGAUCACCCAUGUCAGGAUAUCUACAUUGAAGCUUCGGCUUCAAUGUAGAGAAGGGAUAAUUA [E1/4-B1] (Eterna round: R97, puzzle: Exclusion 1) | 119 nM | – | 62.2 nM | – | – | –
AUAAUGUCAGGAUAUCAGUCGUACAGCUUCGGCUGUACGACUGAGAAGGGACAUGAGGAUCACCCAUGUGGUUA [E4/7-A1] (Eterna round: R97, puzzle: Exclusion 4) | 36.4 nM | – | 228 nM | – | – | –
AUUUAGCGAGGAUAUACCAACGUGAUCUUCGACUGAGCGGCACUUGAGGAUCACCCAAGUAGAAGGCGCACUAU [Onleindian] (Eterna round: R97, puzzle: Exclusion 2) | 346 nM | – | 207 nM | – | – | –
AAAGAUGUAGGAUAUGUCCAUCCAGACAUGAGGAUCACCCAUGUGAGGGCCGGGUGUUGGGCAGAAGGACACCGGU [Eternabot (Original) Solution 19] (Eterna round: R97, puzzle: Exclusion 5) | 27.2 nM | – | 31.4 nM | – | – | –
UUUUUAUAUGAAGGAUAUACUUAACAUGAGGAUCACCCAUGUGGUGUUGUGAGUGAGUGAGUUUAGUAGAAGGUCAAGAAUUUU [JMF's solution 34] (Eterna round: R96, puzzle: Exclusion NG 2) | 521 nM | 399 nM | 324 nM | – | – | –
GAUUAUGCGAGCUUUAGGGACAUGAGGAUCACCCAUGUUCGUCUUAUUGAUCUAGGUACGCUGACGUACCUAAAUCU [Mod of one of jandersonlee's solutions] (puzzle: Sensor v3, turn-off variant 1) | – | – | – | 20.5 nM | 35.2 nM | 23.4 nM
AGCGCCAUCGUGAGAUGGCGUAUUACAUGAGGAUCACCCAUGUAGGAUAUCGAUUGCUUUGCAGUCGAGAAGGGCAUGUCCCAG [JL ENG3 3.80 Mod J] (Eterna round: R96, puzzle: Exclusion NG 3) | 23 nM | 19.2 nM | 24.1 nM | – | – | –
AAAUUGUGAGGAUAUUCGAUGAACACGGAGACGUGUUUAUCGGAGAAGGCACAUGAGGAUCACCCAUGUUCCUU [Mat - Exclusion 4 - JL Mod - D24] (Eterna round: R97, puzzle: Exclusion 4) | 80.4 nM | – | 16.3 nM | – | – | –
